Tests used:
Test in all cases: cell-based or functional assay
[1] = biological target: HIV-1 Env of pseudovirus 0815.v3.c3 (HIV-1)
[2] = biological target: HIV-1 Env of pseudovirus 1056_10_TA11_1826 (HIV-1)
[3] = biological target: HIV-1 Env of pseudovirus 249M B10 (HIV-1)
[4] = biological target: HIV-1 Env of pseudovirus 263-8 (HIV-1)
[5] = biological target: HIV-1 Env of pseudovirus 3016.v5.c45 (HIV-1)
[6] = biological target: HIV-1 Env of pseudovirus 3103.v3.c10 (HIV-1)
[7] = biological target: HIV-1 Env of pseudovirus 3301.v1.c24 (HIV-1)
[8] = biological target: HIV-1 Env of pseudovirus 6240_08_TA5_4622 (HIV-1)
[9] = biological target: HIV-1 Env of pseudovirus 6535.3 (HIV-1)
[10] = biological target: HIV-1 Env of pseudovirus 928-28 (HIV-1)
[11] = biological target: HIV-1 Env of pseudovirus CAP45.2.00.G3 (HIV-1)
[12] = biological target: HIV-1 Env of pseudovirus Ce2060_G9 (HIV-1)
[13] = biological target: HIV-1 Env of pseudovirus Du156.12 (HIV-1)
[14] = biological target: HIV-1 Env of pseudovirus Du422.1 (HIV-1)
[15] = biological target: HIV-1 Env of pseudovirus HIV-0013095-2.11 (HIV-1)
[16] = biological target: HIV-1 Env of pseudovirus HIV-001428-2.42 (HIV-1)
[17] = biological target: HIV-1 Env of pseudovirus PVO.4 (HIV-1)
[18] = biological target: HIV-1 Env of pseudovirus Q23.17 (HIV-1)
[19] = biological target: HIV-1 Env of pseudovirus Q461.e2 (HIV-1)
[20] = biological target: HIV-1 Env of pseudovirus Q769.d22 (HIV-1)
[21] = biological target: HIV-1 Env of pseudovirus Q842.d12 (HIV-1)
[22] = biological target: HIV-1 Env of pseudovirus R2184.c04 (HIV-1)
[23] = biological target: HIV-1 Env of pseudovirus T250-4 (HIV-1)
[24] = biological target: HIV-1 Env of pseudovirus T257-31 (HIV-1)
[25] = biological target: HIV-1 Env of pseudovirus T278-50 (HIV-1)
[26] = biological target: HIV-1 Env of pseudovirus TRJO4551.58 (HIV-1)
[27] = biological target: HIV-1 Env of pseudovirus X1193_c1 (HIV-1)
[28] = biological target: HIV-1 Env of pseudovirus ZM247v1(Rev-) (HIV-1)

VRC01 (antibody) gave an IC50, titer in TZM.bl cells [1] of 0.06 mg/L, an IC80, titer in TZM.bl cells [1] of 0.13 mg/L and an IC50, titer in TZM.bl cells [2] of 0.92 mg/L. It also gave an IC80, titer in TZM.bl cells [2] of 3.28 mg/L, an IC50, titer in TZM.bl cells [3] of 0.13 mg/L and an IC80, titer in TZM.bl cells [3] of 0.46 mg/L. For the same substance, the IC50, titer in TZM.bl cells [4] was 0.2 mg/L, the IC80, titer in TZM.bl cells [4] was 0.55 mg/L and the IC50, titer in TZM.bl cells [5] was 0.16 mg/L. For the same substance, the IC80, titer in TZM.bl cells [5] was 0.42 mg/L, the IC50, titer in TZM.bl cells [6] was 0.93 mg/L and the IC80, titer in TZM.bl cells [6] was 2.49 mg/L. It also gave an IC50, titer in TZM.bl cells [7] of 0.14 mg/L, an IC80, titer in TZM.bl cells [7] of 0.32 mg/L and an IC50, titer in TZM.bl cells [8] of 0.61 mg/L. It also gave an IC80, titer in TZM.bl cells [8] of 1.82 mg/L, an IC50, titer in TZM.bl cells [9] of 0.54 mg/L and an IC80, titer in TZM.bl cells [9] of 2.7 mg/L. The IC50, titer in TZM.bl cells [10] was 0.41 mg/L, the IC80, titer in TZM.bl cells [10] was 1.7 mg/L and the IC80, titer in TZM.bl cells [11] was over 50 mg/L. The IC50, titer in TZM.bl cells [12] was 0.29 mg/L, the IC80, titer in TZM.bl cells [12] was 1.48 mg/L and the IC50, titer in TZM.bl cells [13] was 0.09 mg/L. For the same substance, the IC80, titer in TZM.bl cells [13] was 0.193 mg/L, the IC50, titer in TZM.bl cells [14] was over 50 mg/L and the IC80, titer in TZM.bl cells [14] was over 50 mg/L. The IC50, titer in TZM.bl cells [15] was 0.11 mg/L, the IC80, titer in TZM.bl cells [15] was 0.33 mg/L and the IC50, titer in TZM.bl cells [16] was 0.02 mg/L. For the same substance, the IC80, titer in TZM.bl cells [16] was 0.06 mg/L, the IC50, titer in TZM.bl cells [17] was 0.22 mg/L and the IC80, titer in TZM.bl cells [17] was 1.2 mg/L. For the same substance, the IC50, titer in TZM.bl cells [18] was 0.09 mg/L, the IC80, titer in TZM.bl cells [18] was 0.261 mg/L and the IC50, titer in TZM.bl cells [19] was 0.49 mg/L. It also gave an IC80, titer in TZM.bl cells [19] of 1.6 mg/L, an IC50, titer in TZM.bl cells [20] of 0.08 mg/L and an IC80, titer in TZM.bl cells [20] of 0.29 mg/L. The IC50, titer in TZM.bl cells [21] was 0.03 mg/L, the IC80, titer in TZM.bl cells [21] was 0.096 mg/L and the IC50, titer in TZM.bl cells [22] was 0.08 mg/L. For the same substance, the IC80, titer in TZM.bl cells [22] was 0.32 mg/L, the IC50, titer in TZM.bl cells [23] was over 50 mg/L and the IC80, titer in TZM.bl cells [23] was over 50 mg/L. The IC50, titer in TZM.bl cells [24] was 2.8 mg/L, the IC80, titer in TZM.bl cells [24] was 8.66 mg/L and the IC50, titer in TZM.bl cells [25] was over 50 mg/L. It also gave an IC80, titer in TZM.bl cells [25] of over 50 mg/L, an IC50, titer in TZM.bl cells [26] of 0.08 mg/L and an IC80, titer in TZM.bl cells [26] of 0.21 mg/L. It also gave an IC50, titer in TZM.bl cells [27] of 0.11 mg/L, an IC80, titer in TZM.bl cells [27] of 0.32 mg/L and an IC50, titer in TZM.bl cells [28] of 0.35 mg/L. For the same substance, the IC80, titer in TZM.bl cells [28] was 1.29 mg/L.
